Patent US20090297479A1 (published 2009)

T1: DC-HIL, mouse, endogenous on APC / dendritic cells (mouse, UniProt Q99P91 23-574)
T1 sequence (looked up): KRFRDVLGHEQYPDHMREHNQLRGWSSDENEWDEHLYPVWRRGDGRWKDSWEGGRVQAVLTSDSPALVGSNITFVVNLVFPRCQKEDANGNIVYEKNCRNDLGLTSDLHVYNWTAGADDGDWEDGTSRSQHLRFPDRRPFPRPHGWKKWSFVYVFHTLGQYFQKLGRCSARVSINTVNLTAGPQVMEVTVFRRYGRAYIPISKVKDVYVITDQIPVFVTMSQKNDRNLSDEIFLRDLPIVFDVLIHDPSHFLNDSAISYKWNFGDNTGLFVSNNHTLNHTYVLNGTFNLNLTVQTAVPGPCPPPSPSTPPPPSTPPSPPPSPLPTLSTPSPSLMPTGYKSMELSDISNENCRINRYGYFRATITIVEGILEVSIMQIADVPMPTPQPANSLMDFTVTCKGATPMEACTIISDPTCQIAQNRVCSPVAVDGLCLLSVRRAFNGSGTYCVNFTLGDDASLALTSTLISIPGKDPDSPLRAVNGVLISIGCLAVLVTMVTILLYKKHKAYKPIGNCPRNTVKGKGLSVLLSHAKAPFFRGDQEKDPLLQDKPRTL

T2: DC-HIL-Fc RAA mutant (replacement of RGD sequence with RAA) (mouse; human, UniProt Q99P91 23-502)
T2 construct: extracellular domain; Positions 65 and 66 are derived from the printed position of RGD (aa 64-66); not shown: Fc of human IgG1
T2 sequence (looked up): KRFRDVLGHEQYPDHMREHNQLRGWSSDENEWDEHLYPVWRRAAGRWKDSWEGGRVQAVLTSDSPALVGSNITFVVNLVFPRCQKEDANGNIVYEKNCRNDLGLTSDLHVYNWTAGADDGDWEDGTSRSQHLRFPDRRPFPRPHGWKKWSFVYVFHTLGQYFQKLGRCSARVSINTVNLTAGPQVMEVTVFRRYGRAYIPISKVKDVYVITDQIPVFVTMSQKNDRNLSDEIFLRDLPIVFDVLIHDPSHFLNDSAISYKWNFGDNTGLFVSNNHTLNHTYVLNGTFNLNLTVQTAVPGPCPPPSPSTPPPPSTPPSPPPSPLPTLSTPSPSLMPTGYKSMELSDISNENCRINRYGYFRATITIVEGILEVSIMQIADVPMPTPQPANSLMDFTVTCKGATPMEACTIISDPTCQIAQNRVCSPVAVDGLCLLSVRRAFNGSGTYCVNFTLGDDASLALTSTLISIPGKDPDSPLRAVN

B1: SD4-Fc (extracellular domain of SD-4 fused to the Fc portion of human IgG1) (Fc fusion, UniProt O35988 24-145, looked up, not shown: a dimerising Fc or GST)
chain: ESIRETEVIDPQDLLEGRYFSGALPDDEDAGGSDDFELSGSGDLDDTEEPRPFPEVIEPLVPLDNHIPENAQPGIRVPSEPKELEENEVIPKRAPSDVGDDMSNKVSMSSTAQGSNIFERTE
B2: syndecan-4 (SD-4), mouse, endogenous on T-cells (receptor, UniProt O35988 24-198, looked up)
chain: ESIRETEVIDPQDLLEGRYFSGALPDDEDAGGSDDFELSGSGDLDDTEEPRPFPEVIEPLVPLDNHIPENAQPGIRVPSEPKELEENEVIPKRAPSDVGDDMSNKVSMSSTAQGSNIFERTEVLAALIVGGVVGILFAVFLILLLVYRMKKKDEGSYDLGKKPIYKKAPTNEFYA
modifications: heparin/heparan sulfate chains (binding of DC-HIL is blocked by heparin)
notes: whole, on cells

Key:
[1] = biological target: T1, DC-HIL, mouse, endogenous on APC / …; assay: cell-based or functional assay
recombinant Fc alone = biological target: T3, recombinant Fc alone (human, UniProt P01857-1 99-330 = IgG part, limits assumed); assay: FACS on T-cells (ligand on activated T-cells later identified as SD-4)
T3 construct: domain: Fc portion

[2] = biological target: T2, DC-HIL-Fc RAA mutant (replacement of …); assay: FACS, 10 µg/mL on activated CD4+ T-cells (ligand later identified as SD-4)
Procedure: Splenic CD3⁺ T-cells (1×10⁶) were activated by immobilized anti-CD3 Ab (1 or 3 μg/mL) or concanavalin A (10 μg/mL; Sigma, St Louis, Mo.) for 3 days. Freshly isolated and activated CD3⁺ T-cells were then treated with 5 μg/mL Fc blocker (BD Pharmingen, San Diego, Calif.) on ice for 30 minutes to block Fc-binding activity of Fc receptors on T-cells and incubated with 5 μg/mL PE-anti-CD3 Ab (BD Pharmingen) and 10 μg/mL DC-HIL-Fc or control human IgG (hIgG) plus 5 μg/mL FITC-anti-human IgG (both from Jackson ImmunoResearch, West Grove, Pa.). In some experiments, activated and Fc-blocked CD3⁺ T-cells were doubly-stained with 5 μg/mL FITC-labeled anti-CD4 or anti-CD8 Ab (BD Pharmingen) and Fc proteins/PE-anti-human IgG (BD Pharmingen). The treated cells were also stained with anti-CD69 Ab or isotypic control IgG to evaluate activation levels. After staining, binding of Fc proteins to T-cells and expression of marker molecules were analyzed by fluorescence-activated cell sorting (FACS).

Binder | T-cell activation in the mixed lymphocyte reaction (3H-thymidine) [1] | binding result (recombinant Fc alone) | binding result [2]
B1 | 2 fold | – | –
B2 | – | no binding | binds
